Molecular target: the molecule itself
Assay: SEC

B1: Recombinant CIDE-N domain of mouse Fsp27 (a.a. 39-119) (domain or fragment, UniProt P56198 39-119, looked up)
chain: TPRARPCRVSTADRKVRKGIMAHSLEDLLNKVQDILKLKDKPFSLVLEEDGTIVETEEYFQALAKDTMFMVLLKGQKWKPP
  stoichiometry N: 2
